Measurements: article PMC4919205

Target: TRPV6_(CysKO) D34C-R631C double mutant (rat) (UniProt Q9R186)
Assay: cross-linking

stoichiometry N: 4
Substance: TRPV6_(CysKO) D34C-R631C double mutant (from UniProt Q9R186 1-668) (natural protein)
